Data as given in IntAct's records for PubMed 21252943.

B1: E3 ubiquitin-protein ligase RNF4 (Rattus norvegicus (Rat)), O88846 (parent)
chain: MSTRNPQRKRRGGAVNSRQTQKRTRETTSTPEISLEAEPIELVETVGDEIVDLTCESLEPVVVDLTHNDSVVIVEERRRPRRNGRRLRQDHADSCVVSSDDEELSKDKDVYVTTHTPRSTKDEGTTGLRPSGTVSCPICMDGYSEIVQNGRLIVSTECGHVFCSQCLRDSLKNANTCPTCRKKINHKRYHPIYI

Variants of: B1
Conditions: with sumo2_human SUMO2, P61956
sumo2_human SUMO2, P61956, sequence (P61956 whole entry): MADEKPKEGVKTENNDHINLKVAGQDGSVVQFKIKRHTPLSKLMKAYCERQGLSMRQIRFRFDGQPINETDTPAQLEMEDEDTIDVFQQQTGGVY

Effect of a mutation on the interaction, disrupting interaction:
L53A
I50A
I73A
V74A
V61A
V71A
V63A
I40A
V72A
V62A
L42A
V43A
V51A
